Consider three molecules from patent US20240043568A1 (KEYMED BIOSCIENCES, published 2024).

Read-outs that look alike come from different tables or passages of the source.

The target of assay [1] is T1, cynomolgus monkey CD3εγ-Fc heterodimer (cynomolgus monkey).
T1 construct: also called monkey CD3 εγ protein
T1 chain 1: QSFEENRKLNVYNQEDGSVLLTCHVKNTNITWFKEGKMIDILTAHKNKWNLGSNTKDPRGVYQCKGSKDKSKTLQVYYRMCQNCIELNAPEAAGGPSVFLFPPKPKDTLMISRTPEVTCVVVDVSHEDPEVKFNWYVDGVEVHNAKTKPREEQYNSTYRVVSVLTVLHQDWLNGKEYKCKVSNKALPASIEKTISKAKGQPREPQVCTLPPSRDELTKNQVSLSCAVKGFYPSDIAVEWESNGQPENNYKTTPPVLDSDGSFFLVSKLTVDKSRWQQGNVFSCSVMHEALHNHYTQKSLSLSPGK
T1 chain 2: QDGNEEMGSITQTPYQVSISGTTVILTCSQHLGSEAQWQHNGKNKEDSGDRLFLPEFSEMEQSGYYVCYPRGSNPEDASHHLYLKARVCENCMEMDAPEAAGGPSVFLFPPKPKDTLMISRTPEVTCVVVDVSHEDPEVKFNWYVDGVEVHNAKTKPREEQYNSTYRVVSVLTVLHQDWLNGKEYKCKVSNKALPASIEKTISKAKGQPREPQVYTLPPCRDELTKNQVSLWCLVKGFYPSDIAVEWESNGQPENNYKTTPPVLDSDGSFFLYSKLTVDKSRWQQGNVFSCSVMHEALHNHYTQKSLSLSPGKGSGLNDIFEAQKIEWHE
As to the kind of experiment: ELISA on coated monkey CD3εγ protein, A450 [panel Monkey CD3 εγ dimer]. Here is the method:
(§1) Human CD3 εγ protein and monkey CD3 εγ protein were coated separately overnight at 4° C. After blocking with 2% skim milk, different dilutions of CD3 antibody were added to each well and incubated for 1 hour. The secondary antibody HPR-labeled goat anti-human IgG Fc was added. After being developed by the TMB solution. The reaction was stopped with the concentrated sulfuric acid and the absorbance was read at 450 nm.
A general note: In an ELISA, binding on a coated surface is turned into a signal by an enzyme label.

In assay [2] the target is T2, human CD3εγ-Fc heterodimer (human).
T2 construct: also called human CD3 εγ protein; recombinant CD3 εγ protein
T2 chain 1: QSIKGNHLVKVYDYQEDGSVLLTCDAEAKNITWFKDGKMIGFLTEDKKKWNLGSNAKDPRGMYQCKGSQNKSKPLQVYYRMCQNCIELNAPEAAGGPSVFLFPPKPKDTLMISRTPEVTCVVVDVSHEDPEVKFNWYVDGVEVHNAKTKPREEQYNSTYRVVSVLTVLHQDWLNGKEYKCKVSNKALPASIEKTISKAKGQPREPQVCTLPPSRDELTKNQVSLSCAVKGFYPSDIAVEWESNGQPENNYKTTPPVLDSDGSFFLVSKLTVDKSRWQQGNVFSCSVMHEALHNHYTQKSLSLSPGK
T2 chain 2: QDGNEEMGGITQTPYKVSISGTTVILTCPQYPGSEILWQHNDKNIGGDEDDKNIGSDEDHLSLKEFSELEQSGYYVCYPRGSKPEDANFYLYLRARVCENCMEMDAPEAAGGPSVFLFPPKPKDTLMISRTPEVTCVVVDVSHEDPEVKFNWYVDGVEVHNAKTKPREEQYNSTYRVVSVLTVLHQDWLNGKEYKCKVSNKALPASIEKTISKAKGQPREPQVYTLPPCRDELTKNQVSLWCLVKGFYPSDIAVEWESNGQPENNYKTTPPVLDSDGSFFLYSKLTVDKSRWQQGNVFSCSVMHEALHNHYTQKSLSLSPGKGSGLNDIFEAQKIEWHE
As to the kind of experiment: ELISA on coated human CD3εγ protein, A450 [panel Human CD3 εγ dimer]. How it is done:
as §1

In assay [3] the target is T2, human CD3εγ-Fc heterodimer. As to the kind of experiment: ELISA, coated human CD3εγ protein. Here is the method: Human CD3 εγ protein was coated overnight at 4° C. After blocking with 2% skim milk, different dilutions of CD3 antibodies was added to each well and incubated for 1 hour. The secondary antibody HPR-labeled goat anti-human IgG Fc was added. After being developed by the TMB solution, the reaction was stopped with the concentrated sulfuric acid, and the absorbance was read at 450 nm (the results are shown in FIG. 12 and Table 8).

The target in the next assay is T3, human CD3 on T cells (human, UniProt P07766 23-207).
T3 construct: whole, on cells; The target is the native CD3 complex on cells; The recombinant antigen used elsewhere is the εγ heterodimer; also called CD3 on Jurkat cells; CD3 on human peripheral blood CD4+ and CD8+ T cells
As to the kind of experiment: flow cytometry, Jurkat cells. How it is done: Jurkat cells in the logarithmic growth phase were taken, blocked with 3% BSA for 30 min, and added to 96-well U-plate at 5×10⁴ cells per well. The supernatant was discarded after centrifugation. 50 μL of gradient diluted antibody was added (antibody concentration: from 30 ng/mL, 3-fold dilution for 5 gradients) per well, and incubated at 4° C. for 1 hour. […] After washing, 50 μL PBS was added per well to perform resuspending for FACS (iQue, intellicyt) assay (the results are seen in FIG. 13, and Table 10).
On the technique in general: In flow cytometry, cells or beads pass a laser one at a time.

Assay [4] has as its target T4, recombinant human GPC3 protein (human, UniProt P51654 25-563).
T4 construct: also called human GPC3 full-length protein; recombinant GPC3 protein
As to the kind of experiment: ELISA on coated recombinant human GPC3 protein, OD450 [panel Recombinant human GPC3 protein].

The target of assay [5] is T5, recombinant cynomolgus monkey GPC3 full-length protein (cynomolgus monkey, UniProt A0A2K5VK50 24-558). As to the kind of experiment: ELISA on coated recombinant cynomolgus monkey GPC3 protein, OD450 [panel Recombinant cynomolgus monkey GPC3 protein].
The next assay deals with T6, human GPC3 on cells (human, UniProt P51654 25-563).
T6 construct: whole, on cells; One molecule is used for both CHO-hGPC3 transfectants and GPC3+ HepG2 cells; The assay field names the cell; also called CHO-hGPC3 (clone 2B10); CHO-human GPC3
As to the kind of experiment: flow cytometry, CHO-human GPC3 cells. Here is the method:
The binding of the antibodies to human GPC3 stably-transfected cells was detected by FACS. CHO-human GPC3 stably-transfected cells prepared in Example 1 in the logarithmic growth phase were adjusted to 5×10⁵ cells/ml with 4% calf serum (Hyclone, SH30626.06). 100 μl/well of cell suspension was added to a 96-well U-plate, and centrifuged at 300 g for 5 min. The supernatant was discarded. 100 μL of gradient diluted antibodies (initial concentration 200 nM, 3-fold dilution, 12 gradients) was added to each well and incubated at 4° C. for 45 min. The secondary antibody Alexa Fluro647 labeled goat anti-human IgG Fc (1:300 dilution) was added at 50 μL/well, incubated on ice for 45 minutes, and detected by flow cytometry.

Assay [6] addresses T4, recombinant human GPC3 protein. As to the kind of experiment: BLI (Octet), antibody on Protein A probe. How it is done:
Using BLI technology (Octet), the antibody to be tested was captured on the Protein A probe. The binding capacity with human GPC3 protein (10 μg/ml as the initial concentration, 2-fold gradient, a total of 5 concentration points) was detected. The affinity constant KD was obtained according to the association and dissociation rates.
For orientation: Biolayer interferometry detects binding as a change in optical thickness at a sensor tip.

Assay [7] addresses T7, recombinant GST-human GPC3 stem protein (human).
T7 construct: also called recombinant human GPC3 extracellular domain membrane-proximal protein
As to the kind of experiment: ELISA, coated antigen 1 µg/ml. How it is done: (§2) The high-affinity positive clone 49G8 was selected to detect binding activity to recombinant human, cynomolgus monkey, mouse GPC3 full-length proteins, and recombinant human GPC3 extracellular domain membrane-proximal proteins. 1 μg/ml of the above-mentioned protein was coated overnight at 4° C. After blocking, 49G8 chimeric antibody (initial concentration 200 nM, 3-fold gradient dilution, a total of 12 concentrations) was added and reacted for 1 hour at room temperature. The secondary antibody HPR-labeled goat anti-human IgG Fc was added. After being developed by the TMB solution, the reaction was stopped with concentrated sulfuric acid, and the absorbance was read at […]. The 49G8 antibody can bind to the full-length human and cynomolgus monkey GPC3 proteins and the membrane-proximal end of the extracellular region of human GPC3 with a slightly higher affinity than the control antibody and a weak affinity to mouse GPC3 protein (Table 3).

For assay [8], the target named is T4, recombinant human GPC3 protein. As to the kind of experiment: ELISA, coated antigen 1 µg/ml. How it is done:
as §2

Assay [9] deals with T5, recombinant cynomolgus monkey GPC3 …. As to the kind of experiment: ELISA, coated antigen 1 µg/ml. How it is done:
as §2

Assay [10] concerns the target T4, recombinant human GPC3 protein. As to the kind of experiment: BLI (Octet), antibody on Protein A probe. Here is the method: Using BLI technology (Octet), the antibody to be tested was captured on the Protein A probe. The binding capacity with human GPC3 protein (10 μg/ml as the initial concentration, 2-fold gradient, a total of 5 concentration points) was detected. The affinity constant KD was obtained according to the association and dissociation rates. The 49G8 humanized antibody binds to the recombinant GPC3 protein with high affinity. The affinity data is seen in Table 6.
This is another data set of the same source.

T7 sequence (chain, as listed by the source limits assumed): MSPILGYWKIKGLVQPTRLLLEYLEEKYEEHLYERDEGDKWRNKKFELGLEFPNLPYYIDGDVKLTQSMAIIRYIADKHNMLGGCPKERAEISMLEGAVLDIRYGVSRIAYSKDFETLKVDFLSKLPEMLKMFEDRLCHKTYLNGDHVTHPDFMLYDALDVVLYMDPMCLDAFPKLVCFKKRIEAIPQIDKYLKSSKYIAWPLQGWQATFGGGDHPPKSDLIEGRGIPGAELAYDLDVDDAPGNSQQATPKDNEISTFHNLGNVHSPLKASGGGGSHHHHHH

B1: aCD3-hVH9/VL2 (antibody, V domains shown)
VH: EVQLVESGGGLVQPGGSLRLSCAASGFTFNTYAMNWVRKAPGKGLEWVGRIRSKYNNYATYYADSVKDRFTISRDDSKNSLYLQMNSLKTEDTAVYYCVRHGNFGNSYVSWFAYWGQGTLVTVSS
VL: QAVVTQEPSLTVSPGGTVTLTCRSSTGAVTTSNYANWVQEKPGQAPRGLIGGTNKRAPWTPARFSGSLLGGKAALTLSGAQPEDEAEYYCALWYSNLWVFGGGTKLTVL
notes: Human IgG4, lambda
Consider B1, for which the “EC50 (read off the curve)” value in assay [1] and in assay [2] was ~0.04 ng/mL in each case. The EC50 in assay [3] is 0.44 nM; with human CD3 on T cells it was 25 nM.

B2: aCD3-hVH9/VL5 (antibody, V domains shown)
VH: EVQLVESGGGLVQPGGSLRLSCAASGFTFNTYAMNWVRKAPGKGLEWVGRIRSKYNNYATYYADSVKDRFTISRDDSKNSLYLQMNSLKTEDTAVYYCVRHGNFGNSYVSWFAYWGQGTLVTVSS
VL: QAVVTQEPSLTVSPGGTVTLTCRSSTGAVTTSNYANWVQEKPGQAPRGLIGGTNKRAPWTPARFSGSLLGGKAALTITGAQAEDEAEYYCVLWYSNLWVFGGGTKLTVL
notes: Human IgG4, lambda
B2: the “EC50 (read off the curve)” value in [1] and in assay [2] was ~0.05 ng/mL throughout. Further, the EC50 was 0.42 nM in [3] and 20 nM in the assay with human CD3 on T cells.

B3: 49G8 (antibody, V domains shown)
VH: QVQLQQSGAELVRPGASVKLSCKALGYTFADYEIHWVKQTPVHGLEWIGAIHPGSGGTAYNQTFEGKATLTADKSSTTAYMELSSLTSEDSAVYYCTRYYSFAYWGQGTLVTVSA
VL: DVVMTQTPLSLPVSLGDQASISCRSSQSIVHSNGNTYLEWYLQKPGQSPKLLIYKVSNRFSGVPDRFSGSGSGTDFTLKISRVEAEDLGVYFCLQVTHVPLTFGAGTKLELK
notes: Chimeric human IgG1; also called 49G8 chimeric antibody; Mab 49G8
On to B3, for which the “EC50 (read off the curve)” value in [4] and in assay [5] was ~0.03 nM in each case. Moreover, the EC50 worked out at 1.18 nM with human GPC3 on cells, 0.074 nM in assay [7], 0.072 nM in assay [8] and 0.12 nM in [9]. For the same molecule, the Kd in [6] was 3.32 nM; in [10], 1.17 nM. Also, the koff in assay [6] is 0.000231 s⁻¹; in assay [10], 9.35e-05 s⁻¹. In addition, the kon turned out to be 69400 M⁻¹ s⁻¹ in assay [6] and 79700 M⁻¹ s⁻¹ in assay [10].

As a reminder, the EC50 (read off the curve) is the concentration at which the effect is half-maximal. Usually EC50 stands for the midpoint of the concentration-response curve. The Kd is the free concentration of one partner at which half of the binding sites on the other are occupied at equilibrium, for simple one-to-one binding. As a reminder, the koff is the rate constant with which the complex falls apart. Broadly, the kon is the rate constant with which the complex forms.
